Biological target: PHR1 S11A-His (UniProt Q94CL7 1-409, S11A)
Experiment: EMSA; without SnRK1; 10 mM Tris-HCl pH 8.0, 100 mM NaCl, 10% glycerol, 2 mM DTT, 0.05% NP-40; 0.5 ug protein in 30 ul, 22 C, 30 min; 4.5% acrylamide gel, 0.5x TBE
Details: protein: recombinant; tags: His (pET28b(+)); chain copies: 2; label: 32P 5' end label on sense strand (T4 PNK); blunt

Sequence of PHR1 S11A-His (Q94CL7 whole entry S11A): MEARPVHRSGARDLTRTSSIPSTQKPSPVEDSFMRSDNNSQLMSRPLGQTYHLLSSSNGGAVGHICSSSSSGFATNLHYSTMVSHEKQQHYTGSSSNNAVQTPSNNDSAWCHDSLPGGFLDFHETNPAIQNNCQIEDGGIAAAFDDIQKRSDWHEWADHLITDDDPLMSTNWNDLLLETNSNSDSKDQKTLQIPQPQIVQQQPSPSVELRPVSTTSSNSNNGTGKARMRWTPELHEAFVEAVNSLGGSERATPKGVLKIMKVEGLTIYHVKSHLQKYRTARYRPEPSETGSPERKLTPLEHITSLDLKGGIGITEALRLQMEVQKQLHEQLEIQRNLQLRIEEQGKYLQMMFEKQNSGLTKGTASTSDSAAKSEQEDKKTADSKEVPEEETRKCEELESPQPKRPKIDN

B1: AtIPS1 P1BS probe (dsDNA)
DNA 1: CAATTTTGGTAACGGCATATTCCATCGGATGATCCAAAATTCTCAAAA
DNA 2: TTTTGAGAATTTTGGATCATCCGATGGAATATGCCGTTACCAAAATTG
B1: binds.

Reference: article PMC10107491, “Phosphorylation of S11 in PHR1 negatively controls its transcriptional activity”
